Our source for the Km values is PMC6915384, “Kinetic Parameter Estimation and Mathematical Modelling of Lipase Catalysed Biodiesel Synthesis in a Microreactor” (Micromachines, 2019).

Substrate in the series: CO
The series can be described thus: initial rates of FAME formation in PTFE microreactor, GC; non-linear regression. In kind it is biochemical, Thermomyces lanuginosus. Particulars: transesterification, co-substrate sunflower oil (fatty acids constant; printed 1,488.15 mg/L), 40 °C, 0.01 mol/L potassium phosphate pH 7.4, double-substrate Michaelis-Menten, methanol range printed a.

B1: lipase from Thermomyces lanuginosus (Lipolase 100L; Lipolase L100; TlL) (Thermomyces lanuginosus) (protein)
chain: EVSQDLFNQFNLFAQYSAAAYCGKNNDAPAGTNITCTGNACPEVEKADATFLYSFEDSGVGDVTGFLALDNTNKLIVLSFRGSRSIENWIGNLNFDLKEINDICSGCRGHDGFTSSWRSVADTLRQKVEDAVREHPDYRVVFTGHSLGGALATVAGADLRGNGYDIDVFSYGAPRVGNRAFAEFLTVQTGGTLYRITHTNDIVPRLPPREFGYSHSSPEYWIKSGTLVPVTRNDIVKIEGIDATGGNNQPNIPDIPAHLWYFGLIGTCL
notes: commercial liquid preparation Lipolase 100L (Sigma-Aldrich), free enzyme in phosphate buffer; mass 33,400 g/mol used for calculations (cited)
In the case of B1, the Km was 7.56 ± 2.77 mg/mL.

One may read the Km as the concentration of substrate that gives half-maximal velocity.
